One test addresses T1, Human VSIG4-L-His (human, UniProt Q9Y279 20-283).
T1 construct: long isoform ECD with His tag; also called hVSIG4-L
T1 sequence: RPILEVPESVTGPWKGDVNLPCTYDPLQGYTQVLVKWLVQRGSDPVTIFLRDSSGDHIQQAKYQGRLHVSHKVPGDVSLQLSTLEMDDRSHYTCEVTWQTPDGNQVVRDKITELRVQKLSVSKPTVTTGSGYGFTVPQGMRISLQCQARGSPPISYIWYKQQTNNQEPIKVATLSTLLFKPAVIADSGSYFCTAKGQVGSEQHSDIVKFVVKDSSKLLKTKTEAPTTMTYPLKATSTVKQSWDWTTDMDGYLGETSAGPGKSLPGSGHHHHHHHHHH
Kind of test: SPR (FJB).

The target of test [1] is T2, Cynomolgus Monkey VSIG4-L-His (cynomolgus monkey).
T2 construct: ECD with His tag; also called cyVSIG4-L; cyno VSIG4-L-His
T2 chain: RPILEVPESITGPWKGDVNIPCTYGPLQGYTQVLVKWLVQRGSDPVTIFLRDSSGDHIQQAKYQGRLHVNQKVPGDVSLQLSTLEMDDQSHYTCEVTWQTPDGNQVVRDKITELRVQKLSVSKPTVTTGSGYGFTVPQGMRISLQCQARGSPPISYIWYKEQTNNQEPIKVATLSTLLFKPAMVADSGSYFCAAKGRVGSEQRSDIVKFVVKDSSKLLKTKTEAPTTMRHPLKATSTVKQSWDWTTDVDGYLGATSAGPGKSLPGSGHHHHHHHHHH
In words: SPR (FJB).

In the next test the target is T3, Mouse VSIG4-His (mouse).
T3 construct: ECD with His tag; also called mVSIG4
T3 chain: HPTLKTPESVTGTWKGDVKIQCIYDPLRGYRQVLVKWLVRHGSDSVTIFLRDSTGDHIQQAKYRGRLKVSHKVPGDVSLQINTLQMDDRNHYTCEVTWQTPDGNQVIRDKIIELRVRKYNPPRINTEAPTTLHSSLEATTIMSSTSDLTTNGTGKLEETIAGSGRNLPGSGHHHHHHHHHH
In words: ELISA (FJB), muVSIG4-His.

Test [2] deals with T4, Human VSIG4-L-CHO (human VSIG4 long isoform on CHO-K1 cells) (human, UniProt Q9Y279 20-399).
T4 construct: also called hVSIG4-L (flow cytometry)
T4 sequence: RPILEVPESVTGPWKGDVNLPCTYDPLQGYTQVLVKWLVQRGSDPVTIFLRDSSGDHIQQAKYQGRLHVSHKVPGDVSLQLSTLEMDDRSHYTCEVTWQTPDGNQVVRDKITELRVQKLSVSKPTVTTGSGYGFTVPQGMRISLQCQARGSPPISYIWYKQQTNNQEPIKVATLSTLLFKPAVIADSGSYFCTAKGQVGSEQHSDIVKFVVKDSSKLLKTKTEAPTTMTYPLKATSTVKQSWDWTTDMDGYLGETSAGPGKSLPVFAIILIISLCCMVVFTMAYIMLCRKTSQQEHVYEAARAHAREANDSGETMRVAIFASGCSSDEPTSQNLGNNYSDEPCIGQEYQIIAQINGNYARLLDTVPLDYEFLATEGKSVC
In words: flow cytometry (FJB), huVSIG4-L CHO-K1 cells. On the technique in general: A flow cytometer gives signals particle by particle.

Test [3] deals with T5, Human VSIG4-L-Fc (human).
T5 construct: also called hVSIG4-L-Fc; hVSIG4-L
In words: BLI cross-blocking on hVSIG4-L-Fc, competitor 12A12 first.

Test [4] deals with T5, Human VSIG4-L-Fc. In words: BLI cross-blocking on hVSIG4-L-Fc, competitor 14C05 first.
Test [5] has as its target T5, Human VSIG4-L-Fc. Kind of test: BLI cross-blocking on hVSIG4-L-Fc, competitor 16G02 first.
Test [6] addresses T5, Human VSIG4-L-Fc. In words: ligand competition ELISA (FJB), blocked ligand C3b. (In an ELISA, binding on a coated surface is turned into a signal by an enzyme label.)
Test [7] deals with T5, Human VSIG4-L-Fc. In words: ligand competition ELISA (FJB), blocked ligand iC3b.
The target in test [8] is T4, Human VSIG4-L-CHO (human VSIG4 long …). In words: flow cytometry (FJB), 200 nM mAb, huVSIG4-L CHO-K1 cells.
Test [9] has as its target T5, Human VSIG4-L-Fc. In words: ligand competition ELISA (FJB), blocked ligand C3b, 200 nM mAb.
Test [10] has as its target T5, Human VSIG4-L-Fc. In words: ligand competition ELISA (FJB), blocked ligand iC3b, 200 nM mAb.
The target in test [11] is T4, Human VSIG4-L-CHO (human VSIG4 long …). In words: flow cytometry (FJB), 200 nM mAb, huVSIG4-L CHO-K1 over parental CHO-K1.

The text below walks through data of patent US20230348603A1 (VERSEAU THERAPEUTICS, published 2023).

B1: 16G02 mouse/human chimeric IgG4 (S228P) kappa (antibody, V domains shown)
VH: QVQLQQSGAELMKPGASVKISCKATGYTFSSYWIEWVKQRPGHGLEWIGEILPGSSTTNYNEKFKGKATFTADTSSNTAYMQLSSLTSEDSAVYYCAREDHFITTARYAMDYWGQGTSVTVSS
VL: DIVLTQSPASLAMSVGQKVTMSCKSSQSLLNSSNQKNYLAWYQQKPGQSPKLLLYFASTRESGVPDRFIGSGSGTDFTLTISSVQAEDLADYFCQQHYSNPLTFGAGTKLELKR
The Kd is the equilibrium constant for the complex coming apart. A word on the EC50: it is the midpoint of the concentration-response curve. As a reminder, the IC50 is the concentration that gives 50% inhibition. B1: the figures for the Kd (with Human VSIG4-L-His; in test [1]) were 2.5 nM and 1.3 nM, respectively. In addition, in the test with Mouse VSIG4-His, the binding result is recorded as “no binding (tested: 50 nM)”. This molecule had an EC50 in [2] of 5.2 nM. The figures for the “binding signal (nm shift)” value in the test with Human VSIG4-L-Fc [3], in the test with Human VSIG4-L-Fc [4] and with Human VSIG4-L-Fc [5] were 0.1 nm, 0.11 nm and 0.11 nm, respectively. In addition, the IC50 came out at 1.1 nM in the test with Human VSIG4-L-Fc [6] and 1 nM in the test with Human VSIG4-L-Fc [7]. In addition, the “Binding (200 nM) MFI” value in test [8] is 38100 MFI. In the test with Human VSIG4-L-Fc [9], the “% Block C3b (200 nM mAb)” value is 96%. Moreover, the “% Block iC3b (200 nM mAb)” value with Human VSIG4-L-Fc [10] worked out at 98%. In test [11], the “Binding (200 nM) Fold-Over-Parental” value turned out to be 130 fold.
